Molecular target: the molecule itself
Assay: SEC-SAXS

B1: ParB1 from Vibrio cholerae (vcParB1) (natural protein)
chain: MTKRGLGKGLDALLATSSLAREKQQVASLSQSMSAEGELADLSISNLKPGIYQPRKDLSPEALEELAASIQSQGIIQPIVVRHLPTGGYEIIAGERRWRAAKQAGLKQVPCLIKQVEDRGAIAMALIENIQREDLNAMEEAQALERLQNEFNLTHQQVAEVIGKSRTTVTNLLRLNQLSDDVKRLLETKQLEMGHARALLMLEGEQQVEIAQQVAKKQLTVRQTEQLVKKCLSDPSDAKNVSEDLEIQQLSQNLSEKLAAKVSIVRTPNGKSKVTISLDEPHKLELLIAKLQN
Question: Which “stoichiometry N” value does the source give for B1 here?
Answer: Its value is 2.
